Measurements: patent EP1198239B1 (Cancer Research Ventures Limited, dated 2007)

T1: Kid (Escherichia coli plasmid R1, UniProt P13976 24-133)
T1 construct: expressed from p424Met25Kid in yeast and from pNATHA2 in HeLa cells; also called ParD kid toxin; killing determinant
T1 sequence (looked up): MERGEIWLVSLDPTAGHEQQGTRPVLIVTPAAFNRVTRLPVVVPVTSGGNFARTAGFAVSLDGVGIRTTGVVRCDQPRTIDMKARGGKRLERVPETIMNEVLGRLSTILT

B1: HisKis (other, Escherichia coli plasmid R1, UniProt P13975 1-85, looked up)
chain: MHTTRLKRVGGSVMLTVPPALLNALSLGTDNEVGMVIDNGRLIVEPYRRPQYSLAELLAQCDPNAEISAEEREWLDAPATGQEEI
notes: Co-expressed with Kid from pRG-HisKisKid in E. coli C600 or TG1; also called His-tagged Kis; ParD kis antitoxin with N-terminal His tag; not shown: N-terminal His tag and linker from vector pET15b, subcloned into pRG-recA-NHis

Experiments:
[1] = target: Kid (Escherichia coli plasmid R1) (UniProt P13976); assay: cell-based or functional assay
[2] = target: T1, Kid; assay: co-retention of untagged Kid with HisKis on Ni2+-activated chelating sepharose; Kid released only by denaturation (eluted at 5.5 M guanidinium chloride)

Row | Molecule | dead cells (trypan blue), all other samples (incl. kis+/kid+ HeLa cells without Doxycyclin, Kis expressed) [1] [%] | dead cells (trypan blue), kis+/kid+ HeLa cells in presence of Doxycyclin, day five [1] [%] | dead cells (trypan blue), kis+/kid+ HeLa cells in presence of Doxycyclin, day ten [1] [%] | binding result [2]
1 | Kis (from UniProt P13975 1-85) | < 9 | 32 | 65 | –
2 | B1 | – | – | – | binds
